According to US8822187B1, “Polypeptides, nucleic acid molecules, and methods for synthesis of triterpenes” (University of Kentucky Research Foundation, priority 2011, dated 2014):

Experiments:
[1] = NADPH oxidation versus squalene and bisfarnesyl ether recovery; assay type: biochemical
Procedure: With reference to Table 2, Assays were performed as described above in the Methods except that an alternative reaction buffer (50 mM Tris pH 8.0, 250 mM NaCl, 20 mM MgCl2) was used to minimize spontaneous NADPH oxidation and prevent protein precipitation at high concentrations. […] An extinction coefficient of 6220/M/cm was used to calculate the amount of NADPH oxidized. No NADPH oxidation could be measured in complete reaction buffer without protein over a 1 h incubation. […] This background NADPH oxidation was subtracted from the experimental determined rates. The experimental enzyme assays contained either purified TSS (0.75 or 1.5 μg) or SSL-2 (8 or 16 μg) and 40 μM ^3H-FPP. Absorbance at […] was recorded every 2.5 min. for 15 minutes, after which the reaction was stopped by adding an equal volume of 0.5 M EDTA. The reaction mixture was collected, extracted with 200 μl of hexane and aliquots were separated by silica TLC along with standards of squalene and bisfarnesyl ether using hexane:MTBE (25:1) as the developing solvent. The standards were subsequently visualized with iodine vapor, and corresponding zones analyzed by scintillation spectroscopy. Data represents mean±S.E.M of duplicate samples.

[2] = substrate: CC(C)=CCC/C(C)=C/CC/C(C)=C/CO[P@@](=O)(O)OP(=O)(O)O; assay: purified protein, by the assay type; settings: other: purified SSL-1, 3H-FPP, 0.1% triton X-100, 15 min at 37° C., PSPP as sole reaction product
[3] = 100 μM NADPH, 40 μM 3H-FPP, 15 minutes, 23° C.

B1: SSL-2: Botryococcus braunii race B squalene synthase-like 2 enzyme; bacterial form is truncated SSL-2-tr2 (protein)
chain: MVKLVEVLQHPDEIVPILQMLHKTYRAKRSYKDPGLAFCYGMLQRVSRSFSVVIQQLPDELRHPICVFYLILRALDTVEDDMNLPNEVKIPLLRTFHEHLFDRSWKLKCGYGPYVDLMENYPLVTDVFLTLSPGAQEVIRDSTRRMGNGMADFIGKDEVHSVAEYDLYCHYVAGLVGSAVAKIFVDSGLEKENLVAEVDLANNMGQFLQKTNVIRDYLEDINEEPAPRMFWPREIWGKYAQELADFKDPANEKAAVQCLNHMVTDALRHCEIGLNVIPLLQNIGILRSCLIPEVMGLRTLTLCYNNPQVFRGVVKMRRGETAKLFMSIYDKRSFYQTYLRLANELEAKCKGEASGDPMVATTLKHVHGIQKSCKAALSSKELLAKSGSALTDDPAIRLLLLVGVVAYFAYAFNLGDVRGEHGVRALGSILDLSQKGLAVASVALLLLVLLARSRLPLLTSASSKQ
- Bisfarnesyl ether formed [1]: greater than 21 pmoles
- NADPH oxidation not associated with squalene biosynthesis [1]: 2.4 pmol
- NADPH oxidized [1]: 4.6 pmol
- squalene biosynthesis [1]: 2.2 pmol
- bisfarnesyl ether formed per mole equivalent of NADPH oxidation ([1]; 21 pmoles versus 2.4 pmoles): about 10 times
- pmoles bisfarnesyl ether recovered per μg protein [1, 3]: 21.7 ± 1.8 pmoles per μg protein
- pmoles squalene recovered per μg protein [1, 3]: 2.2 ± 0.4 pmoles per μg protein
- pmoles NADPH oxidized per μg protein ([1]; 100 μM NADPH, 40 μM FPP, 15 minutes, 23° C., background subtracted): 4.6 ± 2.6 pmoles per μg protein
- NADPH oxidation rate in reaction buffer without FPP (background) ([1]; without FPP): 22 pmoles/μg protein/h

B2: Botryococcus braunii race B squalene synthase-like 1 (SSL-1), wild type, hexa-histidine tagged, SEQ ID NO: 2 (Botryococcus braunii) (protein)
chain: MTMHQDHGVMKDLVKHPNEFPYLLQLAATTYGSPAAPIPKEPDRAFCYNTLHTVSKGFPRFVMRLPQELQDPICIFYLLLRALDTVEDDMNLKSETKISLLRVFHEHCSDRNWSMKSDYGIYADLMERFPLVVSVLEKLPPATQQTFRENVKYMGNGMADFIDKQILTVDEYDLYCHYVAGSCGIAVTKVIVQFNLATPEADSYDFSNSLGLLLQKANIITDYNEDINEEPRPRMFWPQEIWGKYAEKLADFNEPENIDTAVKCLNHMVTDAMRHIEPSLKGMVYFTDKTVFRALALLLVTAFGHLSTLYNNPNVFKEKVRQRKGRIARLVMSSRNVPGLFRTCLKLANNFESRCKQETANDPTVAMTIKRLQSIQATCRDGLAKYDTPSGLKSFCAAPTPTK
- Km [2]: 12.8 µM
- kcat [2]: 0.027 s⁻¹
